Consider four molecules from US6610541B2, “Recombinant, active caspases and uses thereof” (Thomas Jefferson University, priority 1998, dated 2003).

Assay [1] has as its target T1, rev-caspase-6 (Homo sapiens, UniProt P55212).
T1 sequence (P55212 with tags, fused parts or gaps): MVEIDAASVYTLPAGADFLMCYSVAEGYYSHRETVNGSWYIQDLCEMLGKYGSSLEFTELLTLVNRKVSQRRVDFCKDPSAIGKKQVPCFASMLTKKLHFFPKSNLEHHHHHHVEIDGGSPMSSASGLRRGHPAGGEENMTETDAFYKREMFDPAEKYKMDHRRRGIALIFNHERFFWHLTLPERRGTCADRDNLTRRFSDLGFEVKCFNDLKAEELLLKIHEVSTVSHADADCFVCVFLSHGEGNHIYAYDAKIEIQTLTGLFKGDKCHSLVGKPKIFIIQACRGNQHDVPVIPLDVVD
In words: Autocatalytic processing of in vitro translated rev-caspase-6 (SDS-PAGE/autoradiography). Also on record: T7-tag (15 residues) (N); made in house; host or cells: in vitro translation in rabbit reticulocyte lysate (TNT Kit, Promega). Format: biochemical. As to the method:
(§1) FIGS. 2B and C are scanned images of autoradiograms representing SDS-PAGE analysis of the autoprocessing of rev-caspase-3 and -6, respectively in the presence of varying levels of selected caspase inhibitors. Rev-caspase-3 (FIG. 2B) or rev-caspase-6 (FIG. 2C) were in vitro translated in the presence of increasing concentrations of DEVD-CHO […]; (SEQ ID NO:52), or zVAD-fmk (0-5 μM). The translation products were then analyzed as in FIG. 2A. WT, wild-type.
(§2) ^35S-labeled caspases (wild-type and rev-caspases) were obtained by in vitro translation in the presence of ^35S-methionine using a coupled transcription/translation system in rabbit reticulocyte lysate using TNT Kit (Promega) according to the manufacturer's recommendations.
(§3) To test the effect of selected caspase inhibitors on the autocatalytic activity of rev-caspase-3 and 6, the rev-caspases were translated as in Example 3, but in the presence of varying amounts of inhibitors.

In assay [2] the target is T2, caspase-6 (Homo sapiens, UniProt P55212).
T2 sequence (P55212 24-293): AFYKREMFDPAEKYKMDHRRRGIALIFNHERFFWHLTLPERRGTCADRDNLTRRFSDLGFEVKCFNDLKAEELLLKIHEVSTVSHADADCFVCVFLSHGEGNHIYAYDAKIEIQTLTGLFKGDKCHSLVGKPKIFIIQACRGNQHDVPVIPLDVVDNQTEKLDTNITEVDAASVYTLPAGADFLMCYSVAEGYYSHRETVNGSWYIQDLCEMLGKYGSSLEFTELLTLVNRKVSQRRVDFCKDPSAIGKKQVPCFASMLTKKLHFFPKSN
To be noted: earlier observations, J. Biol. Chem. 271:27099; cited from earlier work.

Assay [3] has as its target T3, rev-caspase-3 (Homo sapiens, UniProt P42574).
T3 sequence (P42574 with tags, fused parts or gaps): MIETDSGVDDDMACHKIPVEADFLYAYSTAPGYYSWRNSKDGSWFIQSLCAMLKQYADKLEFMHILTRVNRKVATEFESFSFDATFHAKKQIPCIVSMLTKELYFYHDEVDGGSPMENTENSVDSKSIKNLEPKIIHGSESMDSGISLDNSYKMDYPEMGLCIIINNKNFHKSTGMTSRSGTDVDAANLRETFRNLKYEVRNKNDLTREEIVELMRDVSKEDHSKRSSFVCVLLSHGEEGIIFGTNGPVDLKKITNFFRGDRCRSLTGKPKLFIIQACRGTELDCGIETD
In words: Autocatalytic processing of in vitro translated rev-caspase-3 (SDS-PAGE/autoradiography). Type of assay: biochemical. Also on record: T7-tag (15 residues) (N); made in house; host or cells: in vitro translation in rabbit reticulocyte lysate (TNT Kit, Promega). The protocol: as §1, §2, §3

Assay [4] has as its target T4, uncleavable rev-caspase-3 (Homo sapiens, UniProt P42574, D28A/D9A).
T4 construct: uncleavable rev-caspase-3 (B); made in house; host or cells: in vitro translation in rabbit reticulocyte lysate (TNT Kit, Promega)
T4 sequence (P42574 with tags, fused parts or gaps D9A/D28A): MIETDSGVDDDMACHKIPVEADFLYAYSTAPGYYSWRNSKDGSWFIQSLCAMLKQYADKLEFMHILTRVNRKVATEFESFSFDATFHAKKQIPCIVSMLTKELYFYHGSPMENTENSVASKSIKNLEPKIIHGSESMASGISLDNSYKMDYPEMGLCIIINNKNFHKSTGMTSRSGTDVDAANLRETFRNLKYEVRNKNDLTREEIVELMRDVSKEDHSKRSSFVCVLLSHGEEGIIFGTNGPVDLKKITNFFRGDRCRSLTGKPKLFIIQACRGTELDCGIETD
In words: In vitro translation of uncleavable rev-caspase-3: His6-T7-tag processing. Format: biochemical. To be noted: 400 nM DEVD-CHO during in vitro translation. An excerpt: FIG. 5A is a scanned image of an autoradiogram representing SDS-PAGE analysis of the enzymatic activity of uncleavable rev-caspase-3. Uncleavable rev-caspase-3 was in vitro translated in the absence or the presence of increasing concentrations of DEVD-CHO (SEQ ID NO:52),. The translation product contains a cleavable 35 residues-long His6-T7-tag at its N-terminus. The active site mutant rev-caspase-3 (Rev C/A) was used as a control. The p32 cleavage product without the His6-T7-tag is indicated to the right.
^35S-labeled caspases (wild-type and rev-caspases) were obtained by in vitro translation in the presence of ^35S-methionine using a coupled transcription/translation system in rabbit reticulocyte lysate using TNT Kit (Promega) according to the manufacturer's recommendations. […] Because the in vitro translated products are present at very low concentration in the reaction mixture, the observed cleavage must be attributed to an intramolecular processing within the caspase heterotetramer.
However, to follow the activity of this molecule a cleavable 35 residue long His6-T7-tag N-terminal to the IETD (SEQ ID NO:53) site was introduced (see FIG. 1B). […] Nevertheless, the translated molecule was active as evident from its ability to cleave its T7-tag to form the p32 species (FIG. 5). In the presence of 400 nM DEVD-CHO (SEQ ID NO:52), processing of the T7-tag was inhibited and only the full length p34 species can be seen. […] Thus by mimicking the mature caspase structure, it is possible to design a contiguous active caspase molecules.

For assay [5], the target named is T3, rev-caspase-3. In words: Inhibition of rev-caspase-3 induced apoptosis in transfected MCF-7 cells. To be noted: co-transfection with 4-fold expression construct. Also on record: T7-tag (15 residues) (N); made in house. Type of assay: cell-based. The protocol:
(§4) FIGS. 4A and B are bar diagrams representing the ability of rev-caspase-3 and -6 to induce apoptosis in MCF-7 cells. MCF-7 cells were transiently transfected with either rev-caspase-3 (FIG. 4A), or rev-caspase-6 (FIG. 4B) expression constructs in combination with 4-fold of CrmA, p35 or Bcl-2 expression constructs, or 20 μM zVAD-fmk. Cells transfected with an empty vector or the wild-type caspase-3 or -6 were used as controls.
(§5) To express the rev-caspases in mammalian cells and assay their apoptotic activity, they were amplified with the T7-tag primer and the LS-reverse primers using the pET28a constructs as templates, and subcloned into the mammalian double expression vector pRSC-LacZ (MacFarlane et al., J. Biol. Chem., 272: 25417-25420, 1997; Tsang et al., Bio/Technology, 22: 68, 1997). This vector allows the expression of lacZ under the Rous Sarcoma virus promoter, and the test cDNA under the CMV promoter. To assay for apoptosis, MCF-7 or 293 cells were transfected, using the method commercially available as the Lipofect Amine method (Life Technologies, Inc.), with the pRSC-LacZ constructs in the presence or absence of different apoptosis-inhibitors. 30 h after transfection cells were stained with β-galactosidase and examined for morphological signs of apoptosis. […]

Assay [6] deals with T1, rev-caspase-6. In words: Inhibition of rev-caspase-6 induced apoptosis in transfected MCF-7 cells. Type of assay: cell-based. Also on record: T7-tag (15 residues) (N); made in house. To be noted: co-transfection with 4-fold expression construct. As to the method: as §4, §5
Assay [7] concerns lamin A. In words: Cleavage of in vitro translated lamin A C-terminus by bacterially expressed caspases. The conditions noted are these: BL-21 bacterial extracts, 2 h at 37° C. Format: biochemical. As to the method:
FIGS. 3A and B are scanned images representing the SDS-PAGE analysis of the ability of rev-caspase-3 (imaged by western blot) and -6 (imaged by autoradiogram) to cleave PARP and lamin, respectively. In FIG. 3A purified human PARP was incubated with buffer (lane 1) or BL-21 bacterial extracts prepared from bacteria transformed with caspase-3 (lane 2), rev-caspase-3 (lane 3), caspase-6 (lane 4), rev-caspase-6 (lane 5) constructs or empty pET28a vector (lane 6) for 2 h at 37° C. The reaction products were then analyzed by SDS-PAGE and Western blotting with anti-human PARP antibody. In FIG. 3B a cDNA encoding the C-terminus of lamin A (amino acids) which contain the caspase-6 cleavage site (VEIDA); (SEQ ID NO:116), was amplified by PCR and in vitro translated in the presence of ^35S-methionine. The labeled product was incubated with buffer (lane 1) or the BL-21 bacterial extracts listed above for 2 h at 37° C., and then analyzed by SDS-PAGE and autoradiography. The cleavage products are indicated to the right.
At limited caspase concentrations, poly(ADP) ribose polymerase (PARP) is specifically cleaved by caspase-3 and 7 but not other caspases. Similarly, lamin is specifically cleaved by caspase-6 but not other caspases. […]

Assay [8] deals with MCF-7 cells. In words: Induction of apoptosis in transfected MCF-7 cells (round blue apoptotic cells). Format: cell-based, human. The conditions noted are these: 30 h after transfection. As to the method: as §4
To express the rev-caspases in mammalian cells and assay their apoptotic activity, they were amplified with the T7-tag primer and the LS-reverse primers using the pET28a constructs as templates, and subcloned into the mammalian double expression vector pRSC-LacZ (MacFarlane et al., J. Biol. Chem., 272: 25417-25420, 1997; Tsang et al., Bio/Technology, 22: 68, 1997). This vector allows the expression of lacZ under the Rous Sarcoma virus promoter, and the test cDNA under the CMV promoter. To assay for apoptosis, MCF-7 or 293 cells were transfected, using the method commercially available as the Lipofect Amine method (Life Technologies, Inc.), with the pRSC-LacZ constructs in the presence or absence of different apoptosis-inhibitors. 30 h after transfection cells were stained with β-galactosidase and examined for morphological signs of apoptosis. The percentage of round blue apoptotic cells (mean±SD) were represented as a function of total blue cells under each condition (n≧3).
To determine the apoptotic activity of rev-caspase-3 and 6 in vivo, the rev-caspases were expressed in human MCF-7 cells, transfected as explained above in Example 2.

[9] abbreviates: at the concentration used (zVAD-fmk 0-5 μM), p35 data not shown.

On to DEVD-CHO [reference compound], for which, in assay [1] (same concentrations (40-400 nM), inhibitor present during in vitro translation), the “effect on the autocatalytic activity of rev-caspase-6” value is “little effect”. Further, the “inhibition of caspase-6” value in assay [2] is listed as “poorly inhibited”. In addition, the “inhibition of the autocatalytic activity of rev-caspase-3” value in assay [3] (at 40-400 nM concentration, inhibitor present during in vitro translation) was 50-90%. Also, the “processing of the T7-tag of uncleavable rev-caspase-3” value in assay [4] is recorded as “inhibited”.

As to “Bc1-2: overexpressed protein that protects against different forms of apoptosis [reference compound]”, in assay [5], the “effect of overexpression on apoptotic activity of rev-caspase-3” value was “did not significantly reduce”. Further, in assay [6], the “effect of overexpression on apoptotic activity of rev-caspase-6” value is “did not significantly reduce”.

B1: baculovirus p35: baculovirus p35, which inhibits the activity of most caspases (protein)
chain: MCVIFPVEIDVSQTIIRDCQVDKQTRELVYINKIMNTQLTKPVLMMFNISGPIRSVTRKNNNLRDRIKSKVDEQFDQLERDYSDQMDGFHDSIKYFKDEHYSVSCQNGSVLKSKFAKILKSHDYTDKKSIEAYEKYCLPKLVDERNDYYVAVCVLKPGFENGSNQVLSFEYNPIGNKVIVPFAHEINDTGLYEYDVVAYVDSVQFDGEQFEEFVQSLILPSSFKNSEKVLYYNEASKNKSMIYKALEFTTESSWGKSEKYNWKIFCNGFIYDKKSKVLYVKLHNVTSALNKNVILNTIK
In the case of B1, in assay [1] (setting [9]), the “inhibitory effect on rev-caspase-6 autocatalytic activity compared with rev-caspase-3” value was “nearly an equal inhibitory effect”. For the same molecule, the “inhibitory effect on rev-caspase-3 autocatalytic activity compared with rev-caspase-6” value in assay [3] (setting [9]) is “nearly an equal inhibitory effect”. The “effect of overexpression on apoptotic activity of rev-caspase-3” value in assay [5] was “partially protected”. Also, the “effect of overexpression on apoptotic activity of rev-caspase-6” value in assay [6] is “partially protected”.

B2: rev-caspase-6: contiguous caspase-6 with small subunit fused N-terminal to large subunit, VEID cleavage site between them (SEQ ID NO:36) (protein)
chain: MVEIDAASVYTLPAGADFLMCYSVAEGYYSHRETVNGSWYIQDLCEMLGKYGSSLEFTELLTLVNRKVSQRRVDFCKDPSAIGKKQVPCFASMLTKKLHFFPKSNLEHHHHHHVEIDGGSPMSSASGLRRGHPAGGEENMTETDAFYKREMFDPAEKYKMDHRRRGIALIFNHERFFWHLTLPERRGTCADRDNLTRRFSDLGFEVKCFNDLKAEELLLKIHEVSTVSHADADCFVCVFLSHGEGNHIYAYDAKIEIQTLTGLFKGDKCHSLVGKPKIFIIQACRGNQHDVPVIPLDVVD
modifications: OTHER INFORMATION: Rev-Caspase-6 contructed fro m human caspase-6
In the case of B2, the “autocatalytic processing in the in vitro translation reaction (rev-caspase-6 constructs)” value in assay [1] (rabbit reticulocyte lysate, 35S-methionine) was “able to undergo autocatalytic processing”. The cleavage of lamin result in assay [7] was “efficiently cleaved lamin”. The “apoptosis in transfected cells” value in assay [8] was approximately 90%.
